Where a chain is given by its changes, count along the chain named.
T1: SPOCK1 (Homo sapiens (Human), UniProt Q08629 22-439)
T1 sequence: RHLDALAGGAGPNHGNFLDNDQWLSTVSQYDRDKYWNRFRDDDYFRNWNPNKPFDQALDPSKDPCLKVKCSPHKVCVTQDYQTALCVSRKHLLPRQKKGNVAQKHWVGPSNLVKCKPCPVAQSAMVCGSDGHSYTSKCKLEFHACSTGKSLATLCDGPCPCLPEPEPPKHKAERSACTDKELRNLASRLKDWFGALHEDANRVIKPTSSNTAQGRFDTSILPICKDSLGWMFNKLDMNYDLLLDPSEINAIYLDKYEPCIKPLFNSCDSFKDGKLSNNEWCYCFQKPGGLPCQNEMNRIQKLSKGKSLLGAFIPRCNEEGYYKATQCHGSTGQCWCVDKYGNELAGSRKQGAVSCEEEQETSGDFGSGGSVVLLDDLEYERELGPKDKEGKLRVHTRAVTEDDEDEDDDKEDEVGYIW

T2: FSTL1 (Homo sapiens (Human), UniProt Q12841 21-308)
T2 sequence: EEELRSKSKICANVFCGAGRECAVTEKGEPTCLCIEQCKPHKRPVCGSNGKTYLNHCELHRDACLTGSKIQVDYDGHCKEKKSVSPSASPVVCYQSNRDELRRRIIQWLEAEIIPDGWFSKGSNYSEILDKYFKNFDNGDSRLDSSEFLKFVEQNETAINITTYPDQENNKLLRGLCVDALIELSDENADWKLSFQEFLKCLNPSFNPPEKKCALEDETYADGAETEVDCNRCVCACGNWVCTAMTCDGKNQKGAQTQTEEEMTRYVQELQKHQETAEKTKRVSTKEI

T3: WFDC2 (Homo sapiens (Human), UniProt Q14508 31-124)
T3 sequence: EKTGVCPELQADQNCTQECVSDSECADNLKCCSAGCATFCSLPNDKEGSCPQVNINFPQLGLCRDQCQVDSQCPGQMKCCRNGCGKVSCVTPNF

T4: ITGA6-Fc
T4 construct: Fc fusion
T4 sequence (P23229 whole entry, species assumed, looked up): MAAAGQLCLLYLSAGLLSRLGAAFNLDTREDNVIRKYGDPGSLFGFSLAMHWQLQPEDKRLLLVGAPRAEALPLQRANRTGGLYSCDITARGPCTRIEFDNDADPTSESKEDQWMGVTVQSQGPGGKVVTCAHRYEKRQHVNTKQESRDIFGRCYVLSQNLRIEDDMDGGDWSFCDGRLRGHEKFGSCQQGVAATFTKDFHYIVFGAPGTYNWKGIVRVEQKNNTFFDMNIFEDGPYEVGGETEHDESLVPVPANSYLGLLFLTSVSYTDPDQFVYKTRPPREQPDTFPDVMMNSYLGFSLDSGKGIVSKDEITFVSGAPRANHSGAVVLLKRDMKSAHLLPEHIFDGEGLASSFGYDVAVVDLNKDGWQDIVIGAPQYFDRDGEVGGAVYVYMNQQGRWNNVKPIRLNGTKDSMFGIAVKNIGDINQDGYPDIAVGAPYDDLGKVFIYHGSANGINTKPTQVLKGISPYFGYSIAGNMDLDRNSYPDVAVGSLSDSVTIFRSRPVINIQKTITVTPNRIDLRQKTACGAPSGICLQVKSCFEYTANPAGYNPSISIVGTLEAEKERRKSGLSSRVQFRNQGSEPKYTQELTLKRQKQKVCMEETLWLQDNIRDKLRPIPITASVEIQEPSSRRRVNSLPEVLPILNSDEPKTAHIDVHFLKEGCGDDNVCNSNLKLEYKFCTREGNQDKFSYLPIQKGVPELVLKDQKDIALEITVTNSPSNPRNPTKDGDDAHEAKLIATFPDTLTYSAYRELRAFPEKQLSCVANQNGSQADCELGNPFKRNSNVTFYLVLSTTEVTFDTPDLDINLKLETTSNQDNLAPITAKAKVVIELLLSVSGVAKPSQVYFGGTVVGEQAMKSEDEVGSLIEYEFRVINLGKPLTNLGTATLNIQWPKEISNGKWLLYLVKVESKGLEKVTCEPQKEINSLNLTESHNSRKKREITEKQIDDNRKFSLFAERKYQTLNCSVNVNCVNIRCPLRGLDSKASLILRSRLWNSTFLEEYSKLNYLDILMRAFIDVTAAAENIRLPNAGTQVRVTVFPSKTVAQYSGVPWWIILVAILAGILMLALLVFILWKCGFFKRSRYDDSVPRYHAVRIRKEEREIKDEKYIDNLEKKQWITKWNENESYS

B1: PD1-41C9 (antibody, V domains shown)
VH: QMQLVESGGGVVQPGRSLRLSCAASGFTFSSYAMHWVRQAPGKGLEWVAVISYDGSNKYYADSVKGRFTISRDNSKNTLYLQMNRLRSEDTAVYYCTTTTFDSWGQGTLITVSS
VL: DIVMTQTPLSLPVTPGEAASISCRSSQSLLDSEDGNTYLDWYLQKPGQSPQLLIYTLSHRASGVPDRFSGSGSGTDFTLKISRVAAEDVGLYYCLQRMGFPYTFGQGTKLDIK
notes: scFv-phage in the screening ELISA; whole IgG in the other assays
B2: PD1-49A2 (antibody, V domains shown)
VH: B1 VH with M2V, S75P, R85S, S88A, Q106R, I110V
VL: B1 VL with T7S, A18P, L30F, E33D, A85E, L91I, L110V, D111E
notes: scFv-phage in the screening ELISA; whole IgG in the other assays; also called Parent 49A2
B3: PD1-45D6 (antibody, V domains shown)
VH: QVQLVESGGGVVQPGRSLRLSCAASGFTFSSYAMHWVRQVPGKGLEWVAVISYDGNDKYYADSVKGRFTISRDNSKNTLYLQMNSLRAEDTAVYYCVPTTFEYWGQGSQVTVSS
VL: DIVMTQTPLSLPVTPGEAASISCRSSQSLLDSDDGKTYLDWYLQKPGQSPQLLIYTLSYRASGVPDRFSGSGSGTEFNLRISRVEAEDVGIYYCMQRVEFPFTFGQGTKLDIK
notes: as for B1
B4: PD1-52E8 (antibody, V domains shown)
VH: QVQLVQSGGNLVQPGRSLRLSCAASGFTFDDYAMHWVRQAPGKGLEWVSGISWNSGTPGYADSVQGRFTISRDNAKNSLYLQMNSLRAEDTAVYYCARGHNYLDSSYYDYWGQGTLVTVSS
VL: SYELTQPLSLSVAPGQTARITCSGDALSKEYSYWYQQKPGQAPVLVMYKDSERPSGIPERFSGSSSGTTVTLTISGVQAEDEADYYCQSVDSSDTSVVFGGGTKLTVL
notes: as for B1

Biological target: T1, SPOCK1
Assay: ELISA

Row | Binder | binding result
1 | B1 | no binding (tested: 1 ug/ml)
2 | B2 | no binding (tested: 1 ug/ml)
3 | B3 | no binding (tested: 1 ug/ml)

Biological target: T2, FSTL1
Assay: ELISA

Row | Binder | binding result
4 | B1 | no binding (tested: 1 ug/ml)
5 | B2 | no binding (tested: 1 ug/ml)
6 | B3 | no binding (tested: 1 ug/ml)

Biological target: T3, WFDC2
Assay: ELISA

Row | Binder | binding result
7 | B1 | no binding (tested: 1 ug/ml)
8 | B2 | no binding (tested: 1 ug/ml)
9 | B3 | no binding (tested: 1 ug/ml)

Biological target: T5, M12
T5 construct: also called PD1 mutant M12
Assay: scFv-phage ELISA

Row | Binder | OD490
10 | B1 | 3.1
11 | B2 | 3.9
12 | B3 | 3.9
13 | B4 | 3.2

Biological target: T4, ITGA6-Fc
Assay: scFv-phage ELISA

Row | Binder | OD490
14 | B1 | 0.5
15 | B2 | 0.2
16 | B3 | 0.5
17 | B4 | 0.1

Biological target: T6, M2-1
T6 construct: also called PD1 mutant M2-1
Assay: scFv-phage ELISA

Row | Binder | OD490
18 | B1 | 3.4
19 | B2 | 3.7
20 | B3 | 3.9
21 | B4 | 2.9

Biological target: T7, M9
T7 construct: also called PD1 mutant M9
Assay: scFv-phage ELISA

Row | Binder | OD490
22 | B1 | 3.3
23 | B2 | 3.7
24 | B3 | 3.8
25 | B4 | 2.4

Biological target: T8, M2-2
T8 construct: also called PD1 mutant M2-2
Assay: scFv-phage ELISA

Row | Binder | OD490
26 | B1 | 3.2
27 | B2 | 3.8
28 | B3 | 3.8
29 | B4 | 3.4

Biological target: T9, antigen PD1 (coated, construct not stated) (UniProt Q15116 25-170, limits assumed)
T9 construct: also called PD1 antigen; PDCD1
Assay: scFv-phage ELISA

T9 sequence (Q15116 25-170 limits assumed): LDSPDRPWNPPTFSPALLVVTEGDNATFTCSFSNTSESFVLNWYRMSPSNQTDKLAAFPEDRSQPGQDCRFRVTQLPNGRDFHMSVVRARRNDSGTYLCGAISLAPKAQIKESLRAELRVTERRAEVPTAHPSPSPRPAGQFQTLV

Row | Binder | OD490
30 | B1 | 3.2
31 | B2 | 3.6
32 | B3 | 3.8
33 | B4 | 0.4

Biological target: T10, M2
T10 construct: also called PD1 mutant M2
Assay: scFv-phage ELISA

Row | Binder | OD490
34 | B1 | 0.8
35 | B2 | 0.3
36 | B3 | 0.4
37 | B4 | 0.2

Biological target: T11, M5
T11 construct: also called PD1 mutant M5
Assay: scFv-phage ELISA

Row | Binder | OD490
38 | B1 | 2.3
39 | B2 | 1.2
40 | B3 | 3.6
41 | B4 | 0.5

Biological target: T12, M3
T12 construct: also called PD1 mutant M3
Assay: scFv-phage ELISA

Row | Binder | OD490
42 | B1 | 2.3
43 | B2 | 3.4
44 | B3 | 3.8
45 | B4 | 1.5

Biological target: T13, M5-2
T13 construct: also called PD1 mutant M5-2
Assay: scFv-phage ELISA

Row | Binder | OD490
46 | B1 | 3.6
47 | B2 | 3.8
48 | B3 | 3.9
49 | B4 | 3.5

Biological target: T14, M11
T14 construct: also called PD1 mutant M11
Assay: scFv-phage ELISA

Row | Binder | OD490
50 | B1 | 0.9
51 | B2 | 0.4
52 | B3 | 0.7
53 | B4 | 0.2

Biological target: T15, M7
T15 construct: also called PD1 mutant M7
Assay: scFv-phage ELISA

Row | Binder | OD490
54 | B1 | 0.8
55 | B2 | 0.4
56 | B3 | 0.5
57 | B4 | 1

Biological target: T16, M10
T16 construct: also called PD1 mutant M10
Assay: scFv-phage ELISA

Row | Binder | OD490
58 | B1 | 3.4
59 | B2 | 2.6
60 | B3 | 3.9
61 | B4 | 1

Biological target: T17, M7-2
T17 construct: also called PD1 mutant M7-2
Assay: scFv-phage ELISA

Row | Binder | OD490
62 | B1 | 3
63 | B2 | 2.2
64 | B3 | 4
65 | B4 | 3.9

Biological target: T18, M7-1
T18 construct: also called PD1 mutant M7-1
Assay: scFv-phage ELISA

Row | Binder | OD490
66 | B1 | 1.2
67 | B2 | 0.5
68 | B3 | 1.3
69 | B4 | 1.1

Biological target: T19, M14
T19 construct: also called PD1 mutant M14
Assay: scFv-phage ELISA

Row | Binder | OD490
70 | B1 | 3.5
71 | B2 | 3.9
72 | B3 | 3.9
73 | B4 | 2.6

Source: US20190248900A1 (Y BIOLOGICS, published 2019)
